Two molecules from patent publication US20080267967A1 (TRILLIUM THERAPEUTICS, published 2008) can be followed below.

Test [1] has as its target T1, CD200 receptor (CD200R) on primary mouse cells, isoform not stated (mouse) (UniProt Q9ES57).
T1 sequence: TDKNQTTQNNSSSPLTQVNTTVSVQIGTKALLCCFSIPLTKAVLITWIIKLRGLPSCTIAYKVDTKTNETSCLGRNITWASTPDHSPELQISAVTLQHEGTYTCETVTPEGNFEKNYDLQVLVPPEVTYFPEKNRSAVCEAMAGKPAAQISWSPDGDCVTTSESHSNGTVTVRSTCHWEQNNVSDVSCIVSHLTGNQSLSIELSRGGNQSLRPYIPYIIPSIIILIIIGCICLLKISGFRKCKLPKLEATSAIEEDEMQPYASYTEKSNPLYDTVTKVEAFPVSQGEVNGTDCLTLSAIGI
The experiment in a line: cell-based or functional assay.

In a further test the target is T2, murine CD200R2a (murine, UniProt Q6XJV6 25-249).
T2 sequence: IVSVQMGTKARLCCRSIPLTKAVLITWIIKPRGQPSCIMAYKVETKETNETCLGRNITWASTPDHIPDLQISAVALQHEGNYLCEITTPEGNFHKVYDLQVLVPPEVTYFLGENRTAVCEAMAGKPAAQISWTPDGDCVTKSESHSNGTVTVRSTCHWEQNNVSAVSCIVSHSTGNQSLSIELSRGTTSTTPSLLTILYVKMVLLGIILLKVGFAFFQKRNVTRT
The experiment in a line: FACS, FITC-CD200Fc on COS cells transiently transfected with CD200R isoform cDNA. An excerpt: (§1) In order to assess whether the various CD200R isoforms described could all serve as counter-igands for CD200, an immunoadhesin (CD200Fc) incorporating the extracellular domain of CD200 linked to a murine IgG2a Fc region as described (51) was used. CD200Fc was coupled to FITC and the inventors then examined by FACS analysis binding of FITC-labeled CD200Fc to COS cells transiently transfected with pBK vectors encoding cDNAs for the various CD200R isoforms. As control the inventors examined binding to COS cells transduced with empty pBK vectors. COS cells expressing the different CD200R isoforms all bound FITC-CD200Fc.
For orientation: Flow cytometry measures light scatter and fluorescence of single cells or particles in a stream.

For a further test, the target named is T3, murine CD200R3a (murine, UniProt Q5UKY4 26-272).
T3 sequence: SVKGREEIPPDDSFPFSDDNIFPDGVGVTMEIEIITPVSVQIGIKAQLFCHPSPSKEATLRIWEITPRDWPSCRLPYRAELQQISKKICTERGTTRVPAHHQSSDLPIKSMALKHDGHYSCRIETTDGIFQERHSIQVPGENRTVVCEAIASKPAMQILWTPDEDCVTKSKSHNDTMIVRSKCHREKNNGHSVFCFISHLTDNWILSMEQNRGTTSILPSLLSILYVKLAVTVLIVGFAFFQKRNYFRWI
The test is described as above.
Source text: as §1

B1: mouse CD200 on dendritic cells (ligand, UniProt O54901 31-278, looked up)
chain: QVEVVTQDERKALHTTASLRCSLKTSQEPLIVTWQKKKAVSPENMVTYSKTHGVVIQPAYKDRINVTELGLWNSSITFWNTTLEDEGCYMCLFNTFGSQKVSGTACLTLYVQPIVHLHYNYFEDHLNITCSATARPAPAISWKGTGTGIENSTESHFHSNGTTSVTSILRVKDPKTQVGKEVICQVLYLGNVIDYKQSLDKGFWFSVPLLLSIVSLVILLVLISILLYWKRHRNQERGESSQGMQRMK
As for B1, in test [1], the IFNγ in MLC at 40 hrs; CD200R+ cells + CD200+ DC turned out to be 145 pg/mL; the IFNγ in MLC; CD200R+ cells + CD200+ DC, no mAb is 170 pg/mL; the IL-2 in MLC at 40 hrs; CD200R+ cells + CD200+ DC was found to be 160 pg/mL; the IL-2 in MLC; CD200R+ cells + CD200+ DC, no mAb came out at 165 pg/mL. In test [1], the IL-4 in MLC at 40 hrs; CD200R+ cells + CD200+ DC amounted to 255 pg/mL and the IL-10 in MLC at 40 hrs; CD200R+ cells + CD200+ DC was 225 pg/mL.

B2: CD200Fc immunoadhesin (extracellular domain of CD200 linked to a murine IgG2a Fc region) (Fc fusion, mouse, UniProt O54901 31-232, looked up)
chain: QVEVVTQDERKALHTTASLRCSLKTSQEPLIVTWQKKKAVSPENMVTYSKTHGVVIQPAYKDRINVTELGLWNSSITFWNTTLEDEGCYMCLFNTFGSQKVSGTACLTLYVQPIVHLHYNYFEDHLNITCSATARPAPAISWKGTGTGIENSTESHFHSNGTTSVTSILRVKDPKTQVGKEVICQVLYLGNVIDYKQSLDKG
modifications: FITC-labelled in the binding assays
notes: extracellular domain; Made in a baculovirus system in Sf insect cells; also called FITC-CD200Fc; FITC-CD200:Fc; not shown: murine IgG2a Fc region; the ch
For the molecule B2, the binding result in the test with murine CD200R2a and with murine CD200R3a was “binds” in each case.
